Columns and labels:
[1] = molecular target: Exendin-4X12-VT750; test: cell-labeling assay, fluorescence plate reader, MIN6 cells
[2] = molecular target: Exendin-4 (UniProt P26349 48-86); test: blocking on MIN6 cells: Exendin-4 (0-500 nM), then Exendin-4X12-VT750 (10 nM); competitor Exendin-4X12-VT750
[3] = molecular target: Exendin-4K12-VT680; test: in vivo injection into NOD MIP-GFP mice; intravital imaging and fluorescence histology

Measured: binding result

B1: GLP-1R naturally expressed on mouse insulinoma-derived MIN6 cells and mouse pancreatic beta cells (receptor)
chain: GPRPQGTTVSLSETVQKWREYRRQCQRFLTEAPLLATGLFCNRTFDDYACWPDGPPGSFVNVSCPWYLPWASSVLQGHVYRFCTAEGLWLHKDNSSLPWRDLSECEESKRGERNFPEEQLLSLYIIYTVGYALSFSALVIASAILVGFRHLHCTRNYIHLNLFASFILRALSVFIKDAALKWMYSTAAQQHQWDGLLSYQDSLGCRLVFLLMQYCVAANYYWLLVEGVYLYTLLAFSVFSEQRIFKLYLSIGWGVPLLFVIPWGIVKYLYEDEGCWTRNSNMNYWLIIRLPILFAIGVNFLIFIRVICIVVSKLKANLMCKTDIKCRLAKSTLTLIPLLGTHEVIFAFVMDEHARGTLRFIKLFTELSFTSFQGLMVAILYCFVNNEVQMEFRKCWERWRLEHLNIQRDCSMKPLKCPTSSVSSGATVGSSVYAATCQSSYS
notes: whole, on cells; The species follows from the cell line and the animals; also called GLP-1R (MIN6); GLP-1 receptors in vivo (mouse)
binds: [1] | [2] | [3]
